We go through eleven molecules from paper PMC10630445, “RNA recognition by Npl3p reveals U2 snRNA-binding compatible with a chaperone role during splicing”.

The target of series [1] is T1, Npl3 RRM1/2 (Saccharomyces cerevisiae, UniProt Q01560 114-282).
T1 sequence: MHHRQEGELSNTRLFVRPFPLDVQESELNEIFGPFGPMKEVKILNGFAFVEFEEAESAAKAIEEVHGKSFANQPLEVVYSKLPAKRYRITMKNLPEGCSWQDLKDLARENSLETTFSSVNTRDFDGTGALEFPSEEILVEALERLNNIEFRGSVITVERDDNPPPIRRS
Put plainly: ITC; ITC at 40 °C in NMR buffer: RRM1 and RRM1/2 25 mM Na2HPO4, 25 mM NaH2PO4 pH 6.9; RRM2 100 mM NaCl, 20 mM NaH2PO4 pH 5.5; NMR titrations at 40 °C (U2 SL I 1D spectra at 303 K). The settings on record: protein: recombinant; (pET28a, nickel purification).

A further series has as its target T2, Npl3 RRM1/2 linker GGG (Saccharomyces cerevisiae, UniProt Q01560 114-282, L195G;P196G;A197G).
T2 sequence: T1 sequence with L82G, P83G, A84G
Described as above. To be noted: protein: recombinant; (pET28a).

The target in a further series is T3, Npl3 RRM1/2 K217A (Saccharomyces cerevisiae, UniProt Q01560 114-282, K217A).
T3 sequence: T1 sequence with K104A
The description is as above. The settings on record: protein: recombinant; (pET28a).

A further series addresses T4, Npl3 RRM1/2 F128A (Saccharomyces cerevisiae, UniProt Q01560 114-282, F128A).
T4 sequence: T1 sequence with F15A
Described as above. To be noted: protein: recombinant; (pET28a).

For another series, the target named is T5, Npl3 RRM1/2 R126A (Saccharomyces cerevisiae, UniProt Q01560 114-282, R126A).
T5 sequence: T1 sequence with R13A
Described as above. To be noted: protein: recombinant; (pET28a).

Another series has as its target T6, Npl3 RRM1/2 Q214A (Saccharomyces cerevisiae, UniProt Q01560 114-282, Q214A).
T6 sequence: T1 sequence with Q101A
Described as above. The settings on record: protein: recombinant; (pET28a).

The next series addresses T7, Npl3 RRM1/2 F229A (Saccharomyces cerevisiae, UniProt Q01560 114-282, F229A).
T7 sequence: T1 sequence with F116A
The series is described as above. To be noted: protein: recombinant; (pET28a).

The next series deals with T8, Npl3 RRM1/2 R130A (Saccharomyces cerevisiae, UniProt Q01560 114-282, R130A).
T8 sequence: T1 sequence with R17A
The series is described as above. To be noted: protein: recombinant; (pET28a).

Series [2] addresses T9, Npl3 RRM1/2 linker 3xGGGGS (Saccharomyces cerevisiae, UniProt Q01560 114-194+=GGGGSGGGGSGGGGS+198-282, internal_change).
T9 sequence: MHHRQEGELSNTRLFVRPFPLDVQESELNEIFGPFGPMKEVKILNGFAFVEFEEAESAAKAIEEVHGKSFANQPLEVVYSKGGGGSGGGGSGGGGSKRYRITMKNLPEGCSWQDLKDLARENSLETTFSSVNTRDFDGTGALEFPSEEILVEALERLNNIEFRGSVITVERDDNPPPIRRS
The description is as above. The settings on record: protein: recombinant; (pET28a).

The target of another series is T10, Npl3 RRM1/2 Q214A+K217A (Saccharomyces cerevisiae, UniProt Q01560 114-282, Q214A;K217A).
T10 sequence: T1 sequence with Q101A, K104A
The series is described as above. The settings on record: protein: recombinant; (pET28a).

The target in series [3] is T1, Npl3 RRM1/2. Put plainly: NMR titration; UV melting; protein destabilizes the stem; Tm decreased; ITC at 40 °C in NMR buffer: RRM1 and RRM1/2 25 mM Na2HPO4, 25 mM NaH2PO4 pH 6.9; RRM2 100 mM NaCl, 20 mM NaH2PO4 pH 5.5; NMR titrations at 40 °C (U2 SL I 1D spectra at 303 K). The settings on record: protein: recombinant; (pET28a, nickel purification); hairpin.
The target in a further series is T11, Npl3 RRM2 (Saccharomyces cerevisiae, UniProt Q01560 193-282).
T11 sequence: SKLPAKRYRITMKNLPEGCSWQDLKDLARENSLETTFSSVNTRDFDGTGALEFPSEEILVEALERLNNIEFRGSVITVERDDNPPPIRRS
In words: ITC; ITC at 40 °C in NMR buffer: RRM1 and RRM1/2 25 mM Na2HPO4, 25 mM NaH2PO4 pH 6.9; RRM2 100 mM NaCl, 20 mM NaH2PO4 pH 5.5; NMR titrations at 40 °C (U2 SL I 1D spectra at 303 K). To be noted: protein: recombinant; (pET28a, nickel purification). On the technique in general: In ITC the heat of successive injections is recorded.

Series [4] concerns the target T12, Npl3 RRM1 (Saccharomyces cerevisiae, UniProt Q01560 114-201).
T12 sequence: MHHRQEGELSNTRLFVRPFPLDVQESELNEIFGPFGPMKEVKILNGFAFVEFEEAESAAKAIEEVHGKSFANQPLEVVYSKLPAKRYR
The description is as above. To be noted: protein: recombinant; (pET28a, nickel purification).

Series [5] addresses T12, Npl3 RRM1. Put plainly: NMR titration; ITC at 40 °C in NMR buffer: RRM1 and RRM1/2 25 mM Na2HPO4, 25 mM NaH2PO4 pH 6.9; RRM2 100 mM NaCl, 20 mM NaH2PO4 pH 5.5; NMR titrations at 40 °C (U2 SL I 1D spectra at 303 K). The settings on record: protein: recombinant; (pET28a, nickel purification).

Positions count from the first letter of the chain named. Names and notes keep the numbering of the source.

B1: inverted motif RNA (ssRNA)
RNA: AUGGAGUCCAA
Broadly, the Kd is the equilibrium constant for the complex coming apart. In the case of B1, the Kd with Npl3 RRM1/2 [1] stood at 1200 nM.

B2: split-iCRAC consensus RNA (ssRNA)
RNA: AUCCAGUGGAA
On to B2, for which the Kd with Npl3 RRM1/2 linker GGG came out at 3800 nM; with Npl3 RRM1/2 K217A, 7500 nM; with Npl3 RRM1/2 [1] it was 500 nM; with Npl3 RRM1/2 F128A it was 12800 nM; in the series with Npl3 RRM1/2 R126A, 10700 nM; with Npl3 RRM1/2 Q214A it was 1700 nM. Besides, the Kd with Npl3 RRM1/2 F229A was 2300 nM; with Npl3 RRM1/2 R130A, 900 nM; in series [2], 6800 nM; with Npl3 RRM1/2 Q214A+K217A, 15300 nM.

B3: G9A RNA (ssRNA)
RNA: AUCCAGUGAAA
Consider B3, for which the Kd in the series with Npl3 RRM1/2 [1] is 2500 nM.

B4: C3U RNA (ssRNA)
RNA: AUUCAGUGGAA
For the molecule B4, the Kd in the series with Npl3 RRM1/2 [1] worked out at 1800 nM.

B5: U2 snRNA stem-loop I (structured_RNA)
RNA: GAGCGAAUCUCUUUGCCUUUUGGCUUAGAUC
For the molecule B5, the binding result with Npl3 RRM1/2 [3] is “binds”.

B6: C4U RNA (ssRNA)
RNA: AUCUAGUGGAA
With B6, in the series with Npl3 RRM1/2 [1], the dissociation constant (Kd) is 1600 nM.

B7: RRM2 site RNA (ssRNA)
RNA: AGUGGAC
Take B7: the Kd with Npl3 RRM2 came to 2200 nM.

B8: G6A RNA (ssRNA)
RNA: AUCCAAUGGAA
For B8, the Kd in the series with Npl3 RRM1/2 [1] turned out to be 2200 nM.

B9: G8A RNA (ssRNA)
RNA: AUCCAGUAGAA
For the molecule B9, the Kd in the series with Npl3 RRM1/2 [1] worked out at 1900 nM.

B10: RRM1 site RNA (ssRNA)
RNA: AUCCAA
Consider B10, for which the Kd in the series with Npl3 RRM1 [4] was roughly 16200 nM.

B11: polyU 8mer RNA (ssRNA)
RNA: UUUUUUUU
On to B11, for which the binding result with Npl3 RRM1 [5] is given as “no binding”.
